Source: patent publication US20190374607A1

Molecular target: chemokine (C-X-C) motif receptor (CXCR) 4 (UniProt P61073)
Assay: cell-based or functional assay

Chain of chemokine (C-X-C) motif receptor (CXCR) 4 (P61073 whole entry): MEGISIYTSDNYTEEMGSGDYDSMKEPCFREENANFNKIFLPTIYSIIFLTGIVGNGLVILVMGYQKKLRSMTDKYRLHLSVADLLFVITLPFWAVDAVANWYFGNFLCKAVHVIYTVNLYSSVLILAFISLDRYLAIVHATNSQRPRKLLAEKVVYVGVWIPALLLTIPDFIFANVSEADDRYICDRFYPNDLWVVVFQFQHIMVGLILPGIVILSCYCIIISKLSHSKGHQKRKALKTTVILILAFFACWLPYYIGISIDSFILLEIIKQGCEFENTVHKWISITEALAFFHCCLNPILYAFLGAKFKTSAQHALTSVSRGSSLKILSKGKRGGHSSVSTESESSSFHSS

Row | concentration at which thrombin-mediated hPPAEC barrier impairment was affected (t=255 min) [nM] | EC50, inhibition of thrombin-mediated hyper-permeability of hPPAEC (t=255 min) [nM] | Substance
1 | 50 | – | Locked dimer CXCL122 (constitutively dimeric CXCL12 variant, L36C/A65C) (from UniProt O62657 22-89) (ligand)
2 | – | 0.5 to 50 | CXCL12 R47E (from UniProt P48061 22-89) (ligand)
3 | – | 0.05 to 0.5 | CXCL12 K27A/R41A/R47A (from UniProt P48061 22-89) (ligand)
4 | – | 0.05 to 0.5 | CXCL12β (from UniProt P48061 22-93) (ligand)
